Measurements taken from the DeepSol protein solubility set.

Test: soluble on expression in E. coli; label from the status in PepcDB or PDB records

Row | Sequence | soluble on expression in E. coli
1 | MGSDKIHHHHHHMRALVLAAGKGTRMKSKIPKVLHPLSGRPMIEWVIETAGKVAQKVGVVLGFEAELVRKALPEWVDVFVQGEQLGTAHAVMCAKDFIEPGDDVLILYGDVPLISENTLKRMIEEHRKGADVTILVADLEDPSGYGRVIQDGDKYRIIEDTDLPEELKSVTTINTGFYVFSGDFLLRALPEIKNENAKGEYYLTDAVNFAEKVRVVRTDDLLEITGVNTRKTLVWLEEQLRMRKIEELLENGVTILDPATTYIHYSVEIGMDTVIYPMTFIEGKSRVGENCEIGPMTRIVDCEIGNNVKITRSECFKSVIEDDVSVGPFARLREGTILKKSSKIGNFVEIKKSTIGEGTKAQHLSYIGDAFVGKNVNVGAGTITCNYDGKKKNPTFIEDGAFIGSNSSLVAPVRIGKGALIGAGSVITEDVPPYSLGLGRARQVVKEGWVLKKRKEE | not soluble
2 | MGSDKIHHHHHHMRDFLKSAFGRSKPKQLRILPQDVTIEIGQGQTLLEAALANGIAYPHDCTVGTCASCKTRLKQGRVREATPFGYTLSKDELDAGYILACQAFPKDELTVVEIDSSAGDLMPAEKYTANIIATEPLTHDILRVTVQTDRAVSYAAGQYANLRKAGGGRARSYSFANAPQRKGRTLLEFYIRKVPGGEFTESLFGGELKGVSLEMEAPLGTFHLRAGDSHMVCIAGGSGLAPLVSILEHARGNRIKRDCTLLFGARTQADLYQLDAIGSIASNWQGDFRFIPVLSDEPLDSDWKGARGLVTDHIAPGFCEGGEGYLCGPPLMIDAAIASLAKHGIPLEKVFYDKFTDSRDR | not soluble
3 | MGSDKIHHHHHHMREHDEGLLNGITPDRIRDHIRALEGVRHPLAAPEALERAAGYIRETFGSLGYPVADHLFMDGGREFANIIATHTGGSKSGRRVLVVAHYDTVTTTPGADDNASGVAVLLELATILKCLRFERCLQFVAVTLEENEDEHNPRDLGTRGSRALAAHARREGWEIEGAVVLESVAYAGDAVVQRTPAGIPFTVPATGNFIGVIGNEASRGMVDRFGQAVGSREAGLPWVPLVVPGNGGLLPDSRRSDHAPFWDHGYKAIMLTDTTNFRNPHYHQPSDTLETLNLDFAVQVCRATAALLLDIAKASEP | not soluble
4 | MGSDKIHHHHHHMREYIKEGIKLAVTNIPEDVVSAIREALEREESKIAKYNLEMILKAIDISRKEGIPVCQDTGTPIFFVRTNGPINKIYDEIVKGVEIATREVPLRPNALHVLDGKVIGNVPEVHFEPGKETLISILMKGGGSENCTALFPLTPAEGLEGVKNKVIEHVQSCGGKPCPPIIVGIGIASPAEKAIILAKKALLRRISERHPNEKLAKFERELLEEINSLGIGPMGLGGRTTALDVKVEVETRHPASYIVGVVIQCWAHRRAFIKVSEGGVKIWQ | not soluble
5 | MGSDKIHHHHHHMRFTEGLWRLREGVQLFRPEQVYEYSCDGKKLILRSPFRRVEHRGQTLQGPVFEIEISSPFENVIRIRFRHFKGVLEKPPYYEIYQDESFTPDIKETEGSFIFTSGKAKAIIRKNPFGVEFFYEDRFLTKSDLGYAVAPEGRFCLERLHLSVGEMIYGLGERFSAFVKNAQRVVMWNEDAGTISDMTYKNIPFYVSIRKYGVFVNDPGKVDFEIATEHVEKVQFSVKGETLDYFIIAGKDLKEVLERYTLLTGRPELPPAWSFGLWLTTSFTTQYDERTVMEFVDGMRERDIPLHVFHFDCFWMKEFHWVDLEWNRENFPDPEGLLKRLKEKGLKVCVWINPYVSQFSSLFDEGKEKGYFLKKPDGDVWQTDDWQPGMAIIDFTNPEVRKWFASKLERLIDMGVDCFKTDFGEKIPTDVVYYDGSDPEKMHNYYTYLYNKVVFETIERKLGKRNAVVFARSATAGSQKFPVHWGGDCLASYESMAETLRGGLSLALCGFGFWSHDIGGFEDITTPDLYKRWVAFGLLSSHSRLHGNSMYKVPWNFDEEAVEVLRFFTKLKCKLMPYIFASAVEVHERGIPVMRPMILEFPDDPTCLYLDRQYMLGESLLVAPIFSETGEVTYYLPEGVWTHFLTGERVEGGRWRTEKYDYFGLPLFTRPNSIIPTGSVDDRPDYDYADGVTLNVFEISNKTAHVYNTRGEVELSVKVERKGNEIHVEVLKDSRKPWKLLFWNERLEAVEGAETRELEKGTEVVLSFQRAILKTK | not soluble
6 | MGSDKIHHHHHHMRIEVVNVSHIFHRGTPLEKKALENVSLVINEGECLLVAGNTGSGKSTLLQIVAGLIEPTSGDVLYDGERKKGYEIRRNIGIAFQYPEDQFFAERVFDEVAFAVKNFYPDRDPVPLVKKAMEFVGLDFDSFKDRVPFFLSGGEKRRVAIASVIVHEPDILILDEPLVGLDREGKTDLLRIVEKWKTLGKTVILISHDIETVINHVDRVVVLEKGKKVFDGTRMEFLEKYDPRFFTSKMLVMRRLVLKGEDPFSMSDDELLERVCNS | not soluble
7 | MGSDKIHHHHHHMRIILASSSPRRRQLMELLGIEFEVEKPDVEEEFLESPEETVRELSLRKAEWVFKKRKEEEILVIGSDTVVVLDGNILGKPESLEEAKGMLKKLSGKWHVVYTGVAFVSSETKDVIVSSTKVRFRELPESVIDYYVEKYRPLDKAGAYGIQDFAAVFVEKIEGDFFTVVGFPLGMVWQYLYEKGWWKVASKREDDKGGARVAFG | not soluble
8 | MGSDKIHHHHHHMRILISPPMRFGKEFLGGMRRTLEVYSRMGEEVYLCVDERTLPQVDPEISPLLSKFHLVSSSSTDKKTYLKGFLNCLKYARKVDVLISYSEYSLSVYYTWLLSLFSRKPFIVVVHHVTEEIRGSKFLRTVIARSKGIICLDNPEVYEELKSLFPNKVILTSTNGVSVEDYYTSEEKICDGIFVGNYGERKGSRYLFQIWDKVNEKIDAKLCIIGKGWSEIPKNSVYYGFVTEREKIDLLAKSKVFVFPSLYEGFALAVTEALSAYLPVVTWDLKWSERYPVAIRVTYPDISSFAEEVVKLLKDEKLRKSIGEKSRELAKTLNWEKAAEMEKKAIYKIMESK | not soluble
9 | MGSDKIHHHHHHMRILLIHQNFPGQFKHLAPALVANGHEVRTLTLRQDLPDQWQGVTVHRYRAQRNSSPTVHPWVGDFETKVIRGEACFRAALQLRNQGYQPDLILAHPGWGETLFLQDVWPAAKLAIYCEFYYRSAGSDVDFDPEFQRPQGEEDTACRLQLKNLIYTMQGDRVTAGIAPTHWQADQFPEPLRSKITVVHDGIDTEAIAPNPSATITLNNQLKLGRNDEVITFVNRNLEPYRGYHIFMRSLPEILQQRPKARVILVGGDDVSYGARPPAGTWKQIFLKEVADRLDLSRVHFVGKIPYNAFLSLLQVSSVHVYLTYPFVLSWSLIEAMSCGCAIVASDTAPVREVISDGETGRLVNFFDPAGLAATVSELLASPSARAKLGKKARLFAQNHYDLQRVCLPQQMQWVRSLA | not soluble
10 | MGSDKIHHHHHHMRILLSVSRFEDELIEILDRLDETYEIFADNDCFEILKDRIPRIRPFERDDFDLLYLNWRDLPSEKREEKILSTIDENRTLLFLKAIKNYREKLVVTTLEDLKLTFSEIERAGDVSLQTRRYLLLKGLAHFLKVHSEVLESLSDLFFIKDWKAIVLERLQEGIKAPVSLLPVSIPPELVEDIGLASHLIRFLPQKACVLVKNGKIVYASSTGDLPEIEGGVFALKGVFRGEKKFDFILAEDFEGDVEGLRIKDLLHQEEGLVLLGASGYLREPVPTNDFTEVLSMHPVFDSCAVTKEGKLVLHVVELNRSDVINALEKIDLSGTEVAFNFPISDEEKAELKQKGVKKVSWIDSRRIWRRC | not soluble
11 | MGSDKIHHHHHHMRILRVAQDIFPDKVGGAPYHIHALSRDQAEMGHDVTVLTVSNDQSKPQTEQRAGYTLVRLSPRIELFGNALFAGTVKYLRNAREYDVVHAHSHLFFSSNLTAAYSRVTDIPLAVTCHGLMSQRVPEWFSRFHLNTVGRFTYNAADVLFSYTAPERERLRDLGVSSDIRVIHNGIDVDRFTPVGATYDRITDATGPAVVFVGRLVEGKRPRDVLKAFQTVQNNIPEAKLFFCGDGPLRDKLEQIVERENMRESIRFLERVPYQEMPAVYRAADLFVLASRTEGFPRSVMESMACATPILSTRLEQTEQVIEQAGRTVPVGDTTALADAMSSMLDDRAALRKLGQAGREIVMREYDWSETVEQTTQTLGTISTSTPSQQQVDSGQAEEQVIPAGSNTEHEQ | not soluble
12 | MGSDKIHHHHHHMRIPEEIIKLVDTPEFQRLRGVKQLGLANLVYPGANHTRFEHSLGTWYLARKLSLELQLPREDSLLIQLAALLHDIGHGPFSHTFERIYRDRLDFHDHMEVSRRIVEGKIQICEDGGELPDIISSLGYEPREVGELIVGKHKKRYLRMIIHGDIDVDQLDYLTRDAHYTGVAHGIIDLERLLTVMRVFNGELVIDEKGIEAVEGMLVARSLMYSRVYFHRTVKIAEGMLIRAVEFALDEGELEDFWKMTDDRLVIELEDLGDFPGDIIRRIRRRKLFKAAVIIGPEDLTAEEKKSLTTLYRSQKKRKKIESELAEIVGAREGEVMVELSIPELILSEPRLKQVEVNVLLSGGKVEPIGKVTPLASAIKRRQTPRWILLVATLPEYMEGVKRVWREVILE | not soluble
13 | MGSDKIHHHHHHMRKLKIGITCYPSVGGSGIIATELGKQLAEKGHEIHFITSSIPFRLNTYHPNIHFHEVEVNQYAVFKYPPYDLTLASKIAEVAERENLDIIHAHYALPHAVCAYLAKQMLKRNIGIVTTLHGTDITVLGYDPSLKDLIRFAIESSDRVTAVSSALAAETYDLIKPEKKIETIYNFIDERVYLKKNTAAIKEKHGILPDEKVVIHVSNFRKVKRVQDVIRVFRNIAGKTKAKLLLVGDGPEKSTACELIRKYGLEDQVLMLGNQDRVEDLYSISDLKLLLSEKESFGLVLLEAMACGVPCIGTNIGGIPEVIKNNVSGFLVDVGDVTAATARAMSILEDEQLSNRFTKAAIEMLENEFSSKKIVSQYEQIYADLAEPE | not soluble
14 | MGSDKIHHHHHHMRKLLNTLYVTSPNTYLSLDGENIVILKDDVEALRVPLHNLESIIAFGYTGASPALMGACAKRNISLSFMKSNGKFLGRVVGEVRGNVTLRKAQYRLSDDEATSHRIAKSFILGKVYNSRWVVERATRDHGARLDVEKLKGVCQTLANALRLVENSKDLDQLRGVEGEAAAQYFRVLDDLILQQKEDFYFKCRNKRPPLDNVNAMLSFIYTLLAHDAAAALETVGLDPYVGFLHRDRPGRISLALDLMEELRAVFADRFVLSLINRREVNPSGFTRMENGAVVMDDDTRRDILKAWQSRKQEEIKHPFLQEKMEWGLVPYAQAMLLARFIRGDLDGYPAFMWK | not soluble
15 | MGSDKIHHHHHHMRKRRVYWTLFITAFAWLASCSDDDINGSSGFNPNQPIEITEFYPDSGGIATPMIIEGRNFGTDTTGMKVYFEDVDGIRHPAGLVSSNGSRIYAFVPKGLTFKREMNILVERRTPDGQEYIGKAPDQFLYKTQTSVSTVAGLASPDNNINTVGGDLATCTFSSPFYLCIDGEDNIFVVDRKGDSGKDKQPNTTCRNEKGEGVNGNISMISIASNSSIVLKYGTAYINAPAYSDEKDAEAVYIPDDAGMKYYDMQKLLNYVPRYRTVLKSEELSTVDENNWKHCFVINKLDHMIYTVMWKGQLVRINPKNRTAEILLKKISNVATGDGGKAGSDSYIAFSPIKGEENVLYVSLADFHQIWRVDVSKITPEDKDTYNGESYAGKAIYEGVMNGKGWEDGLLKNAKFRHPRQICFTDDGKMYIADSGNSCIRVIDTTMPKERAAVTTPIGLPGAEGYKDGGPEIAKFHFPCGVAVNSDGTIVYVADTQNKVIRKLSIE | not soluble
16 | MGSDKIHHHHHHMRLGFYNIQGGTGKTTIAANIGYYLSDKTKTVYVDCDIYAGCGALLFGFEDSPHTLNSYLSGASALTDIIHQFDDLSVIVADSTPNSFNTEINQKRMLELIRVLNDNYDIVLLDLPPNITEGNLLFSSLNLEEKVVNKMIVVAEDSIPGIANTMKTKELLYAIDIDCIGVIVNKFKDTVDFDEALDDIIAILPYDKKVENQWMENVPAVQMKSKFSKELSYLAEDLAEVYIKKDLAAVRALKVAKELKDMTSKRQDVEEDEF | not soluble
